± gives the standard deviation of the averaged measurements.
Tested on: ATP
Assay: switch fluorescence ratio, 500 uM ATP over buffer (Cy3 cluster intensity, sum of 5 cycles each) (fold (ratio)); higher = stronger signal-on switching upon ATP binding; sequences stand for … in TCGTCGGCAGCGTCAGATGTGTATAAGAGACAGTTTTTTTTTTTTTTTTTTTTTTTTT…TC
Conditions: aptamer strand: ATP DNA aptamer (quencher-CACCTGGGGGAGTATTGCGGAGGAAGG + anchor), 100 nM annealed; ATP concentration: 500 uM
In short: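 The fluorescence ratio divides summed target-cycle Cy3 intensity by summed buffer-cycle Cy3 intensity for each cluster and is averaged per switch-domain sequence. Cy3-labelled switching-strand clusters on a modified Illumina MiSeq flow-cell were annealed to 100 nM quencher-labelled ATP aptamer, then imaged in selection buffer and again after 15 min with 500 uM ATP at 22 °C. Five such cycles were run, with NaOH stripping and re-annealing between them, and clusters outside 100-1000 RFU were excluded.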
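Note: ATP exposure 15 min at 22 °C before imaging.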

Row | Sequence | switch fluorescence ratio
1 | GGTTTGCAGG | 0.967 ± 0.05
2 | GGTTTGCGGC | 0.994 ± 0.036
3 | GGTTTGGAGA | 1.024 ± 0.0091
4 | GGTTTGGCGA | 0.988 ± 0.044
5 | GGTTTGGGTA | 1.01 ± 0.0044
6 | GGTTTGTATG | 0.976 ± 0.021
7 | GGTTTTAAAA | 0.99 ± 0.013
8 | GGTTTTATGT | 0.984 ± 0.032
9 | GGTTTTCATT | 0.951 ± 0.053
10 | GGTTTTCCGT | 1.07 ± 0.051
11 | GGTTTTCCTG | 0.975 ± 0.014
12 | GGTTTTCTAA | 0.9838 ± 0.0051
13 | GGTTTTCTTT | 1 ± 0.035
14 | GGTTTTGCGG | 0.997 ± 0.029
15 | GGTTTTGCTG | 1.05 ± 0.053
16 | GGTTTTGGAT | 0.986 ± 0.019
17 | GGTTTTGTTA | 1.03 ± 0.086
18 | GGTTTTTCCG | 1.03 ± 0.033
19 | GGTTTTTTGA | 1.01 ± 0.038
20 | GGTTTTTTGG | 0.98 ± 0.021
21 | GGTTTTTTTA | 0.983 ± 0.032
22 | GTAAAAATTG | 0.986 ± 0.028
23 | GTAACATGGG | 0.973 ± 0.021
24 | GTAACGGAAC | 1.13 ± 0.018
25 | GTAACGTAAG | 1.03 ± 0.034
26 | GTAAGAGCGT | 0.996 ± 0.041

Row | Sequence | switch fluorescence ratio
27 | GTAAGGAAGG | 0.989 ± 0.012
28 | GTAAGGGGGG | 0.994 ± 0.028
29 | GTAAGGGGGT | 0.9731 ± 0.0091
30 | GTAAGGGGTG | 1.01 ± 0.014
31 | GTAAGGGGTT | 1.033 ± 0.0064
32 | GTAAGTCATT | 1 ± 0.029
33 | GTAATATGCG | 0.987 ± 0.018
34 | GTAATATGTG | 0.991 ± 0.013
35 | GTAATCTGTT | 0.989 ± 0.075
36 | GTAATGAGGT | 1.01 ± 0.024
37 | GTAATGGACC | 1.03 ± 0.043
38 | GTAATGGTTT | 1.07 ± 0.17
39 | GTAATGTATC | 1.03 ± 0.046
40 | GTACTTGGGA | 1.04 ± 0.074
41 | GTAGAGGGGA | 1.02 ± 0.016
42 | GTAGATAGTT | 1.02 ± 0.036
43 | GTAGCAAGGG | 2.38 ± 1.9
44 | GTAGCCTGGT | 0.989 ± 0.041
45 | GTAGCTCTTA | 1.04 ± 0.019
46 | GTAGGAAATA | 1.02 ± 0.02
47 | GTAGGAGGTA | 0.9807 ± 0.0039
48 | GTAGGCAACA | 1.01 ± 0.068
49 | GTAGGGACCG | 0.909 ± 0.025
50 | GTAGGGAGCA | 1.02 ± 0.022
51 | GTAGGGATAG | 1.02 ± 0.057
52 | GTAGGGGACA | 1.06 ± 0.012

Row | Sequence | switch fluorescence ratio
53 | GTAGGGGAGC | 0.977 ± 0.06
54 | GTAGGGGCCT | 1.057 ± 0.0073
55 | GTAGGGGGAG | 0.9884 ± 0.004
56 | GTAGGGGTAA | 0.974 ± 0.036
57 | GTAGGGGTAC | 1.47 ± 0.72
58 | GTAGGGGTTT | 0.998 ± 0.034
59 | GTAGGGTGTG | 0.973 ± 0.041
60 | GTAGGTAGCG | 0.984 ± 0.031
61 | GTAGGTAGTT | 1.09 ± 0.14
62 | GTAGTAAAGG | 0.9867 ± 0.0034
63 | GTAGTCCAGG | 1.27 ± 0.082
64 | GTAGTCGTAC | 1.11 ± 0.064
65 | GTAGTGCAAT | 1.1 ± 0.018
66 | GTAGTTAATG | 0.984 ± 0.038
67 | GTAGTTGGAG | 0.992 ± 0.034
68 | GTATAAATGG | 0.978 ± 0.023
69 | GTATAAGTTG | 1.02 ± 0.047
70 | GTATATATAG | 1.02 ± 0.03
71 | GTATCAGGCC | 0.992 ± 0.01
72 | GTATCGAGAG | 1.01 ± 0.013
73 | GTATCGTACG | 0.984 ± 0.014
74 | GTATCTGGGG | 0.998 ± 0.059
75 | GTATGAATGG | 0.984 ± 0.049
76 | GTATGCCGGG | 0.939 ± 0.057
77 | GTATGCTTTT | 1.034 ± 0.0043
78 | GTATGGAGGG | 1.02 ± 0.029

Row | Sequence | switch fluorescence ratio
79 | GTATGGCTGG | 0.976 ± 0.044
80 | GTATGTAGCG | 0.987 ± 0.027
81 | GTATGTATTT | 0.986 ± 0.021
82 | GTATGTTAGG | 1.0143 ± 0.00055
83 | GTATTAGGGC | 1.02 ± 0.0034
84 | GTATTATAGG | 1.006 ± 0.0042
85 | GTATTCTCCA | 1.018 ± 0.0043
86 | GTATTTAGGG | 1.03 ± 0.039
87 | GTATTTGGGC | 0.994 ± 0.012
88 | GTATTTGTTC | 1.01 ± 0.034
89 | GTATTTTTGA | 1.003 ± 0.0091
90 | GTATTTTTGC | 1.02 ± 0.024
91 | GTCAAACGGA | 0.986 ± 0.018
92 | GTCAAAGGGT | 0.99 ± 0.022
93 | GTCAATTAGG | 0.997 ± 0.024
94 | GTCACCAGGG | 1.58 ± 0.082
95 | GTCACGGGGG | 1.026 ± 0.0027
96 | GTCAGAGGGG | 0.979 ± 0.028
97 | GTCAGATAGG | 1.004 ± 0.008
98 | GTCAGGGGTG | 1.04 ± 0.052
99 | GTCATGCGTG | 0.974 ± 0.044
100 | GTCATTGGGT | 0.99 ± 0.021
101 | GTCATTTTGG | 1.03 ± 0.036
102 | GTCCGGGGGG | 1.26 ± 0.015
103 | GTCCTCGCAT | 4.8 ± 0.54
104 | GTCCTGGGGC | 0.9947 ± 0.0014

Row | Sequence | switch fluorescence ratio
105 | GTCGAAAGGG | 1.01 ± 0.05
106 | GTCGAAAGGT | 0.984 ± 0.019
107 | GTCGAAGGGT | 1 ± 0.048
108 | GTCGACAGCG | 1.02 ± 0.035
109 | GTCGAGGGAA | 0.995 ± 0.022
110 | GTCGAGGGTC | 0.944 ± 0.03
111 | GTCGATAGCG | 0.984 ± 0.015
112 | GTCGATGGGG | 0.969 ± 0.014
113 | GTCGATGGTG | 1 ± 0.016
114 | GTCGCGGCGA | 0.9664 ± 0.006
115 | GTCGCGGGGG | 1.04 ± 0.071
116 | GTCGGACCCG | 0.973 ± 0.019
117 | GTCGGGCCCG | 1.01 ± 0.06
118 | GTCGGGCGTA | 0.991 ± 0.016
119 | GTCGGGGGGC | 0.985 ± 0.021
120 | GTCGGGGGGT | 1 ± 0.025
121 | GTCGGTAGGT | 1 ± 0.032
122 | GTCGTCCTGT | 0.9884 ± 0.0083
123 | GTCGTTGCCT | 0.99139 ± 0.00027
124 | GTCGTTGGTG | 1 ± 0.056
125 | GTCGTTTAAA | 0.9898 ± 0.0062
126 | GTCTAAAATC | 0.978 ± 0.038
127 | GTCTAAGAGT | 0.9786 ± 0.0048
128 | GTCTAAGTGC | 0.996 ± 0.011
129 | GTCTAATATG | 0.9716 ± 0.0048
130 | GTCTAATCAT | 0.967 ± 0.019

Row | Sequence | switch fluorescence ratio
131 | GTCTCATCAC | 1.01 ± 0.056
132 | GTCTCTTAGG | 1.01 ± 0.014
133 | GTCTCTTCAT | 0.986 ± 0.026
134 | GTCTGATTTA | 1.01 ± 0.011
135 | GTCTTAGGTC | 1 ± 0.035
136 | GTCTTGGGTG | 1.02 ± 0.019
137 | GTCTTGGTTC | 0.9721 ± 0.0084
138 | GTCTTTAGGG | 0.9755 ± 0.0055
139 | GTCTTTTGTG | 1.31 ± 0.43
140 | GTGAAGGTCG | 0.927 ± 0.022
141 | GTGAATAGTT | 0.995 ± 0.032
142 | GTGAATGCTG | 0.938 ± 0.048
143 | GTGACAAAAA | 1.027 ± 0.0026
144 | GTGACCGTGT | 1 ± 0.053
145 | GTGACGAAGA | 1.033 ± 0.0065
146 | GTGACGATGT | 1.01 ± 0.0071
147 | GTGACGGGGC | 1.02 ± 0.058
148 | GTGAGAAGAA | 0.97 ± 0.01
149 | GTGAGAGAGT | 0.962 ± 0.015
150 | GTGAGCCGTT | 1.04 ± 0.025
151 | GTGAGGATGG | 0.978 ± 0.012
152 | GTGAGGATTG | 0.98581 ± 8e-05
153 | GTGAGGGGCT | 0.977 ± 0.04

Reference: the supplement of paper PMC10126150
